Test results: publication PMC10108200, “Reaction Pathways for the Enzymatic Degradation of Poly(Ethylene Terephthalate): What Characterizes an Efficient PET‐Hydrolase?” (Chembiochem, 2022)

Columns and labels:
Assay in all cases: initial rates by RP-HPLC, Michaelis-Menten fit
[1] = substrate: O=C(O)c1ccc(C(=O)OCCOC(=O)c2ccc(C(=O)OCCOC(=O)c3ccc(C(=O)O)cc3)cc2)cc1; format: biochemical, Mycothermus thermophilus; details: 50 °C, 10 min, 0-2 mM substrate, 0.01-0.5 μM enzyme
Description: (§1) initial rates by RP-HPLC, Michaelis-Menten fit on HiC

[2] = substrate: O=C(O)c1ccc(C(=O)OCCOC(=O)c2ccc(C(=O)OCCO)cc2)cc1; format: biochemical, Mycothermus thermophilus; details: 50 °C, 10 min, 0-2 mM substrate, 0.01-0.5 μM enzyme
Description: as §1

[3] = substrate: O=C(O)c1ccc(C(=O)OCCO)cc1; format: biochemical, unidentified prokaryotic organism; details: 50 °C, 2 h, 0-2 mM substrate, 0.01-0.5 μM enzyme
Description: (§2) initial rates by RP-HPLC, Michaelis-Menten fit on LCC

[4] = substrate: O=C(O)c1ccc(C(=O)OCCOC(=O)c2ccc(C(=O)OCCOC(=O)c3ccc(C(=O)O)cc3)cc2)cc1; format: biochemical, unidentified prokaryotic organism; details: 50 °C, 10 min, 0-2 mM substrate, 0.01-0.5 μM enzyme
Description: as §2

[5] = substrate: O=C(O)c1ccc(C(=O)OCCOC(=O)c2ccc(C(=O)OCCO)cc2)cc1; format: biochemical, unidentified prokaryotic organism; details: 50 °C, 10 min, 0-2 mM substrate, 0.01-0.5 μM enzyme
Description: as §2

[6] = substrate: O=C(OCCO)c1ccc(C(=O)OCCO)cc1; format: biochemical, unidentified prokaryotic organism; details: 50 °C, 10 min, 0-2 mM substrate, 0.01-0.5 μM enzyme
Description: as §2

[7] = substrate: O=C(O)c1ccc(C(=O)OCCO)cc1; format: biochemical, Thermobifida fusca; details: 50 °C, 2 h, 0-2 mM substrate, 0.01-0.5 μM enzyme
Description: (§3) initial rates by RP-HPLC, Michaelis-Menten fit on TfC

[8] = substrate: O=C(O)c1ccc(C(=O)OCCOC(=O)c2ccc(C(=O)OCCOC(=O)c3ccc(C(=O)O)cc3)cc2)cc1; format: biochemical, Thermobifida fusca; details: 50 °C, 10 min, 0-2 mM substrate, 0.01-0.5 μM enzyme
Description: as §3

[9] = substrate: O=C(O)c1ccc(C(=O)OCCOC(=O)c2ccc(C(=O)OCCO)cc2)cc1; format: biochemical, Thermobifida fusca; details: 50 °C, 10 min, 0-2 mM substrate, 0.01-0.5 μM enzyme
Description: as §3

[10] = substrate: O=C(OCCO)c1ccc(C(=O)OCCO)cc1; format: biochemical, Thermobifida fusca; details: 50 °C, 10 min, 0-2 mM substrate, 0.01-0.5 μM enzyme
Description: as §3

B1: HiC (Mycothermus thermophilus) (protein)
chain: QLGAIENGLESGSANACPDAILIFARGSTEPGNMGITVGPALANGLESHIRNIWIQGVGGPYDAALATNFLPRGTSQANIDEGKRLFALANQKCPNTPVVAGGYSQGAALIAAAVSELSGAVKEQVKGVALFGYTQNLQNRGGIPNYPRERTKVFCNVGDAVCTGTLIITPAHLSYTIEARGEAARFLRDRIRA
- Km [1]: 89 ± 21 µM
- kcat [1]: 24 ± 2.9 s⁻¹
- Km [2]: 77 ± 9.1 µM
- kcat [2]: 2.9 ± 0.098 s⁻¹

B2: LCC (unidentified prokaryotic organism) (protein)
chain: QSNPYQRGPNPTRSALTADGPFSVATYTVSRLSVSGFGGGVIYYPTGTSLTFGGIAMSPGYTADASSLAWLGRRLASHGFVVLVINTNSRFDYPDSRASQLSAALNYLRTSSPSAVRARLDANRLAVAGHSMGGGGTLRIAEQNPSLKAAVPLTPWHTDKTFNTSVPVLIVGAEADTVAPVSQHAIPFYQNLPSTTPKVYVELDNASHFAPNSNNAAISVYTISWMKLWVDNDTRYRQFLCNVNDPALSDFRTNNRHCQ
notes: heterologously expressed and purified
- Km [3]: 1200 ± 130 µM
- kcat [3]: 0.048 ± 0.0033 s⁻¹
- Km [4]: 790 ± 410 µM
- kcat [4]: 300 ± 122 s⁻¹
- Km [5]: 120 ± 35 µM
- kcat [5]: 21 ± 1.7 s⁻¹
- Km [6]: 960 ± 160 µM
- kcat [6]: 6.2 ± 0.62 s⁻¹

B3: TfC (Thermobifida fusca YX) (protein)
chain: ANPYERGPNPTDALLEASSGPFSVSEENVSRLSASGFGGGTIYYPRENNTYGAVAISPGYTGTEASIAWLGERIASHGFVVITIDTITTLDQPDSRAEQLNAALNHMINRASSTVRSRIDSSRLAVMGHSMGGGGTLRLASQRPDLKAAIPLTPWHLNKNWSSVTVPTLIIGADLDTIAPVATHAKPFYNSLPSSISKAYLELDGATHFAPNIPNKIIGKYSVAWLKRFVDNDTRYTQFLCPGPRDGLFGEVEEYRSTCPF
- Km [7]: 3800 ± 91 µM
- Km [8]: 170 ± 38 µM
- kcat [8]: 62 ± 7.3 s⁻¹
- Km [9]: 170 ± 16 µM
- kcat [9]: 11 ± 0.35 s⁻¹
- Km [10]: 230 ± 67 µM
- kcat [10]: 1.1 ± 0.12 s⁻¹
